Among the data in a protein production outcome set (Wang et al. 2014) are protein production values, retold here.

This data set can be described thus: label from the status in PepcDB records.
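Note: failed if final PepcDB status was selected cloned or expressed and not failed if soluble or beyond.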

“MKKYIKPSAILLTLILSACSETKTVQQLISSGNSFVQVRDFSSAVIEFKNAVRLEPKNANARFELGNAYLEQGNFVNAEKEFSRAVELGLDFSNIAALMARVNTHLDKADEVYQLVERSDELTDDDYVEVLTYAGITALKQNRISQGQDYLTQAIVINPDAAYSRIAQAYVHYADREFSQGIVVISNLLNEKTDATEAMLIQGHLYYAQQEFEHASGAFALYLNYHPQDHKIRFFEVNSLIKAEKFEQANVITNTLLKAFKDSSLALQFKAQLEYQKKNYSAARDYAEEALQHGQDFLGAKIIAGVSSYFLGDVEQAYTKLNGIVERVPNNLLVKKILAVTKFELGYYADAAENFSSLEGLTSADLQLLKSSSASLMGIGYVDNALSLINKAEEFSPDNAQVAAQKGLMLLSQNDISGINSMKRAVELDPSLTYVQVALAIGYLNIGEENKAQKIADLYKDKIDEADVGHVLEGFIYLNNKQSANAQVSFEKALSLNPKNIASLYNLGLLHKRAAENSKAIIYFDRLIALSPEHKGALKSLVSIAVNKEYLEEVLTILVRNHQTDNLYSIIALAQVLRIDQQVAKAVTTLGGIDKSVKLTSNYFMLLGDSYLELEKYLKANAIFEQGLALEPKDYLLNIRYISTLEWLGDYTAALDQTRRLHKYYPNNINITTSLIYLEVRNKNYQEAKYLLEAIKGQKSNHHQLDAIAGEIYSYEKDYPQAIEHFSVVYEKEPTELNLLNLARTLGFDKQNKQAERLLELYLDKNPNNSKIRFLLAELYNPQDRKKRVVQYQVLSTQIPNNAIVFNNLAWNQFKLKQTAEALINIEKAYQLQPDSLAIQESYGVILIANNKLSQGINILESAILSGSTDAAAKEYLIKAKTLLNNQGKSSG”: the protein production entry is “failed”.

In the case of “MKKYSTIPTPCYVLESERLEKNAKILEIVRQQSGAKVLLALKGYAFWREFGILRQKLNGCCASGLYEAKLAFEEFGGRESHKEICVYSPAFKEAEMSAILPLATSIIFNSFYQYATYKDRILDKNKQLENLGLSPIKMGLRINPLYSEVTPAIYNPCSKVSRLGITPSGFEKGVKEHGLEGVSGLHFHTHCEQNADALCRTLEHVEKHFRPYLENMAWVNFGGGHHITKSDYDVNLLIQTIKDFKERYHNIEVILEPGEAIGWQCGFLIASVIDIVQNDQEIAILDASFSAHMPDCLEMPYRPSIFKVSVENDEELIEVEKGENQGAFSYFLGGPTCLAGDFMGSFSFETPLKRGDKIVFQDMLHYTIVKNNSFNGVPLPSLARLDQQGFKILKNFSYEDYKNRN”, the protein production result is recorded as “failed”.

In the case of “MKLAMIGFGQAGGKIVDKFLEYDKETGSGIVRSAVAVNTAKADLLGLEHIPEENRVLIGQARVKGHGVGADNELGAEIAEEDIDEVQGAIDNIPVHEVDAFLIVAGLGGGTGSGGSPVVAKHLKRIYTEPVYGLGVLPGSDEGGIYTLNAARSFQTFVREVDNLMVFDNDAWRQTGESVEGGYDHINEEIVRRFGVLFGAGEIEAGDNVAESVVDSSEIINTLDGGGVSTVGYASEDVEVSSGGGGLLSRFKGDDSSDDSMDTANTTNRITSLVRKAALGRLTLPCEIEGAERALLVMAGPPEHLNRKGIERGRKWLEEQTGSMEVRGGDYPTNAPKVAASILLAGVHNVPRIKELQQVAIEAQDNIDDIRNQSEDNLEDLVEDDEDELDPLF”, the protein production result was “failed”.

On to “MKLDHNFSNQAIDAFIKISALSVLVLWCFSILKPFLLLMVWGGIIATALYPIVAFFSKKTALSESKVSIILTVIGVLLLLIPLVALSTGIYTSGTELFLGYQDGSIAIPKPKERMQDWPIIGHEAYSFMSLASSNLESLLFKYSAEVKVVAAKAASLVGSLGGGFIQFIVSTIIAGVFMANAAKCERAFILITNRLTGKHGEELIKLSKITIRSVVQGVIGVAVIQATMAGLGMAVVGISASVLGLWVFLVLVFAIIQLPPILILLPIIFYVFSVDTTTAGVLFAVWCVLVSSSDAILKPVLLSRGSHIPIIVILLGALGGMAMSGIVGLFVGAVVLSLTYQMFTVWLKNEAEETQNAKDNP”, for which the protein production result is listed as “failed”.

As to “MKLEAEAVAPSNIAIVKYWGKRDRELNLPLNSSLSISLDSLWVRSRVIFDESLDKDEVIINGKRLSENEVREYAGRVLRRFRDLYGKELFARVESTTNFPSSAGLASSAAGIAALTYASNAALGLGLSNRELSKIARVGSGSACRSMFGGFVKWNRGELESGDDSFCEEIFPPDHWPDLVDIIPIFGEEKKKVSSRTGMENTATSSALMRCRLQFIEETFNEVIDAIRTKNAGKFFQLTMRHSNSMHAVILDSWPPMNYLNEKSFRVMEWVVEFGKAAYTFDAGPNPHIFVLEKDVDEVLKFLNEIGSTKTIVSRVGKGPYLI”, the protein production entry was “failed”.

On to “MKLERQKLLAKVAYLYYMEGKSQSEIANELGIYRTTISRMLAKAREEGLVRIEISDFNPEIFQLESYFKSKYHLKDIEIVSSRKDSDTSEIEKDLAHVAAAMIRKKIKENDKVGIAWGRTLSKVVEAMRPHPVSQVSFVPLAGGPSHINARYHVNTLVYEMSRRFQGSCTFINATLVQENANLAKGILTSKYFEGLMDNWEKLDVAIVGVGGKPKSNEQQWLDLLNQDDFQCLDEEAAVGEITCRFFNHSGDPVNQHLAKRTIGITLEQLQKVPNRIAVAHGNYKAAALLAVLKKGYINHLVTDFSTALNILRLDKDTFVDTIYQKS”, for which the protein production entry is given as “not failed”.

Take “MKLESNAFEKAFSSDPAPLGLAGFAFTTFLLSFINAGLIPASGVNVVVPLAIAYGGLAQLITGSWEMRRGNNFGFTAFTSYGSFWIFYALMVILADLHIINALPAVAVGWALILWGIFTLYMWGGAMMASMSLNLTFLFLWLTFVVLGLGAIYSSVALTHAGGYLGILSAFFAAYTSFAIIINSMKPGTIPVGPGMFHKKAGK”: the protein production result was “failed”.

For “MKLFKELEETKEQVIKMAKLVQEAIDKATEALNKQNVELAEEVIKGDDTIDLLEVDIERRCIRMIALYQPEAGDLRMIMGIYKIVSDLERMGDEAENIAERAILLAEEPPLKPYVNINFMSEIVKEMVNDSVISFIQQDTLLAKKVIEKDDTVDELYHQLERELMTYVLEDPRNIKRAMHLSFVARHYERIADHAENVAEAAIYLSEGEIVKHQHIKEKGE”, the protein production result is recorded as “not failed”.

Consider “MKLFSSGRKTPTSSPASSHAGAMDETVGVTSTSEAANVATQPVPTPVEDVPNGVRTAAGWCWRMIVIAAFIYGLYQVLHAASEVSVPVAVALMLTAAMWPLANWLSRHHIHRGIASGICLLLLVILVGGVFTLVGAQIALQWRQLGDQSVASFKQALQWLAKSPLHTNEAQLTHLMQKAEAAMAGSQGRIASTAAAAGSQIGRFGAGLVMALFATFFFVYEGDKLAEKSAVLIPREHRAAILDAAKRGWVALVAYVRAAVIVAFVDGLGAGIGAAIIGSSMSVAIGALTFILAFVPIVGALTAGVVAVGVVLVTLGFFKAFIMLIVFVAVMQIEGHVLQPFLLGKAVSIHPLIVLLGIAVGAIISGIVGALFAIPIVAFGVAFIKALNPETPANEVPPNHDDLAAEHT”, for which the protein production entry is given as “failed”.

As to “MKLIKNGKVLQNGELQQADILIDGKVIKQIAPAIEPSNGVDIIDAKGHFVSPGFVDVHVHLREPGGEYKETIETGTKAAARGGFTTVCPMPNTRPVPDSVEHFEALQKLIDDNAQVRVLPYASITTRQLGKELVDFPALVKEGAFAFTDDGVGVQTASMMYEGMIEAAKVNKAIVAHCEDNSLIYGGAMHEGKRSKELGIPGIPNICESVQIARDVLLAEAAGCHYHVCHVSTKESVRVIRDAKRAGIHVTAEVTPHHLLLTEDDIPGNNAIYKMNPPLRSTEDREALLEGLLDGTIDCIATDHAPHARDEKAQPMEKAPFGIVGSETAFPLLYTHFVKNGDWTLQQLVDYLTIKPCETFNLEYGTLKENGYADLTIIDLDSEQEIKGEDFLSKADNTPFIGYKVYGNPILTMVEGEVKFEGDK”, the protein production result is given as “failed”.

Take “MKLIKVILSSISQVVLINNPYTGLFILIGLFAVNWKVGISAMIASVMTWILAPYMNYTKEEIESGLAGFNPVLTAIALTLFLDSNWSGILITFVATILTLPIGAAVREVLKPHKIAFLTSPYVIMTWITLLIPNQLKTLHTQIDIIPEHIEKVSLNNDHTRVHFFQSVLDGFGQIFLMPSIIGGLLILIGIFIGSKKAGIVSIIANIIGFLIIILLGGDYSSINEGIFGYNVVLSAIALGVTFETAIHSYLAMILGIVLTAFIHLGLSTLLAPLGLPTLTWPFIFATWIMLFAGIKNQSV”: the protein production entry is reported as “failed”.

With “MKLKEVTEGKVRIFVPDPTGYMVEGKFDPSWAPVFYNPKMTFNRDLSVIVVSILKPKIIVDALSATGIRGIRYYVESWKSEQLILNDKNPNATSLIQINAKNNGIENAKIYNKDANALLYEVKSDYIDIDPFGSPAPFILSSLNAATRNGIVAFTATDLSPLEGSSPTSCRRKYDAINHKLSSSKELGLRVLIGKIIREAAILEKTVYPLFSFYADYYYRLFVRVENGARKADDNINKHLKYFGECPRCGFQTFVEENCKTKCPVCGEIFSIIGPLYIGPLYSMEFLKRIMDLYSNFNYLTSFNRIQKLLNVIEKEARFKNVFYNISKLASKLKISAIPPIESILECLGDASRTHFAPTGIRTDKEYEEITKCIKSLR”, the protein production result was “failed”.

As to “MKLKGKGIGKVVVEGEVIVSRKPLSFLGGVDPETGTITDPESDIKGESITGKILVFPKGKGSTVGSYILYALSKNGKGPKAIIVEEAEPIVTAGAIISGIPLITNVDISKLKTGMRVRINPQEGEVEILAEGNLLEHHHHHH”, the protein production entry was “failed”.

Turning to “MKLKSYILVGYIISTLLTILVVFWAVQKMLIAKGEIYFLLGMTIVASLVGAGISLFLLLPVFTSLGKLKEHAKRVAAKDFPSNLEVQGPVEFQQLGQTFNEMSHDLQVSFDSLEESEREKGLMIAQLSHDIKTPITSIQATVEGILDGIIKESEQAHYLATIGRQTERLNKLVEELNFLTLNTARNQVETTSKDSIFLDKLLIECMSEFQFLIEQERRDVHLQVIPESARIEGDYAKLSRILVNLVDNAFKYSAPGTKLEVVAKLEKDQLSISVTDEGQGIAPEDLENIFKRLYRVETSRNMKTGGHGLGLAIARELAHQLGGEITVSSQYGLGSTFTLVLNLSGSENKA”, the protein production result is listed as “failed”.

Turning to “MKLLAITSCPNGIAHTYMAAENLQKAADRMGVQMKVETQGGIGVENELTEQEIREADAIIIAADRSVNKDRFIGKKLLAVGVQEGIRKPEELIQKAIGGDIPVYRSAVKTEASAQTEKKQNPIYRHLMNGVSFMVPFIVVGGLLIAVALTLGGEKTPKGLVIPDDSFWKTIEQIGAASFSFMIPILAGYIAYSIADKPGLVPGMIGGYIAATGSFYGSGSGAGFLGGIIAGFLAGYAALAIKKLKVPKAIQPIMPIIVIPVVSSLIVGLAFVLLIGAPVAQIFESLTVWLAGMQGSSSILLALILGAMISFDMGGPVNKVAFLFGSAMIGEGNYEIMGPIAVAICIPPIGLGIATFLGKRKFQAQEREMGKAAFTMGLFGITEGAIPFAAQDPLRVIPSIMAGSMTGSVIAMIGNVGDRVAHGGPIVAVLGAVDHVLMFFIAVIAGSLVTSLLVNVLKKEVTAAPAGISEAAAGNDIPQPNIEIEAESKKIEKPEITKLTDIIDTDLIEPHLSGDTRDDIIDEMIQKLSRKGVLHSESEFKQAIINRELEGTTAIGMNIAIPHGKSDAVKKPSVAFGIKRSGVDWRSLDGTDAKLIFMIAVPKESGGNEHLKLLQMLSRKLMDDTYRDKLLSAQTKEEAYKLLDEII”, the protein production entry is reported as “failed”.
